Measured values published in IntAct's records for PubMed 22484091.

Assays:
[1] = biological target: brox_human BROX (UniProt Q5VW32)
[2] = biological target: brox_human BROX (UniProt Q5VW32); remark: listed apart in the source

Chain of brox_human BROX (Q5VW32 whole entry): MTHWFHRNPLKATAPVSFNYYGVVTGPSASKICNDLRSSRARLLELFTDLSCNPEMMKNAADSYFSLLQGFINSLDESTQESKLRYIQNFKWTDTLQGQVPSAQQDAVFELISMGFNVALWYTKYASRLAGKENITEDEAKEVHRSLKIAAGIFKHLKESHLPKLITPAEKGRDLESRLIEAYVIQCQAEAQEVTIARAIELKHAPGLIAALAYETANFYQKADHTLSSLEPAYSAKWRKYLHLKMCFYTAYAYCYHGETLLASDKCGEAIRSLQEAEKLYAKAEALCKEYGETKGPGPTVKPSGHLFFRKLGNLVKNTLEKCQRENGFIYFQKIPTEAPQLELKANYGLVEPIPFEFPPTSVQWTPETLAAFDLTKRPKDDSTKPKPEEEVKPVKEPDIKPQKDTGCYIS
Chain of Charged multivesicular body protein 5 (Homo sapiens), Q9NZZ3-1 P214G (Q9NZZ3 whole entry P214G): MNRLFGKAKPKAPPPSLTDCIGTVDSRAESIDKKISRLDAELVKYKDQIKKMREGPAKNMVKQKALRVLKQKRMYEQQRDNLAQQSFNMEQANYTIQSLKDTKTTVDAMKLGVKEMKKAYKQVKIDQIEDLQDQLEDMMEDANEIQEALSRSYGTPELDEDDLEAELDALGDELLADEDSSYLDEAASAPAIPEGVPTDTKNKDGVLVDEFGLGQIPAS
Chain of Charged multivesicular body protein 5 (Homo sapiens), Q9NZZ3-1 F211A (Q9NZZ3 whole entry F211A): as the sequence (Q9NZZ3 whole entry P214G) above, with F211A, G214P counted along it
Chain of Charged multivesicular body protein 5 (Homo sapiens), Q9NZZ3-1 L213A (Q9NZZ3 whole entry L213A): as the sequence (Q9NZZ3 whole entry P214G) above, with L213A, G214P counted along it

effect of a mutation on the interaction [1] | effect of a mutation on the interaction [2] | Substance
decreasing interaction strength | disrupting interaction strength | Charged multivesicular body protein 5 (Homo sapiens), Q9NZZ3-1 F211A
disrupting interaction strength | – | Charged multivesicular body protein 5 (Homo sapiens), Q9NZZ3-1 L213A
decreasing interaction strength | disrupting interaction strength | Charged multivesicular body protein 5 (Homo sapiens), Q9NZZ3-1 P214G
